{"source": "the supplement of paper PMC7125110", "parents": {"B1": {"name": "glmS ribozyme (parent)", "chain": "AUAAAAGCGCCAGAACUACAGAAAUGUAGUUGACGAGGAGGAGGUUUAUCGAAUUUUCGGCGGAUGCCUCCAAA"}}, "conditions_in_all_cases": "with glucosamine-6-phosphate", "key": {"[1]": {"variants_of": "B1", "assay": "kcat; higher = faster cleavage; RNA array", "summary_of_the_method": "(§1)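 Ribozyme variants carrying barcodes were transcribed in situ on sequenced MiSeq chips by E. coli RNA polymerase and tracked at 37 °C with a hybridised Cy3 probe. They were exposed to 40 μM to 10 mM glucosamine-6-phosphate in HEPES/KCl/Mg(OAc)2 buffer. kobs came from exponential decay fits of normalised per-tile medians, and kcat and KM from weighted Michaelis–Menten fits.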"}, "[2]": {"variants_of": "B1", "assay": "self-cleavage kobs at 40 uM GlcN6P; higher = faster cleavage; RNA array", "summary_of_the_method": "as §1"}, "[3]": {"variants_of": "B1", "assay": "self-cleavage kobs at 160 uM GlcN6P; higher = faster cleavage; RNA array", "summary_of_the_method": "as §1"}, "[4]": {"variants_of": "B1", "assay": "self-cleavage kobs at 10000 uM GlcN6P; higher = faster cleavage; RNA array", "summary_of_the_method": "as §1"}, "[5]": {"variants_of": "B1", "assay": "KM; higher = weaker cofactor use; RNA array", "summary_of_the_method": "as §1"}, "[6]": {"variants_of": "B1", "assay": "self-cleavage kobs at 640 uM GlcN6P; higher = faster cleavage; RNA array", "summary_of_the_method": "as §1"}, "[7]": {"variants_of": "B1", "assay": "self-cleavage kobs at 2500 uM GlcN6P; higher = faster cleavage; RNA array", "summary_of_the_method": "as §1"}}, "note": "± gives the standard error. For some of these results: Variants at the floor of the assay were thinned out.", "data": [{"variant": "A64C C68U", "values": [{"measurement": "kcat", "setting": "[1]", "value": "< 1e-05", "unit": "s⁻¹"}, {"measurement": "self-cleavage kobs at 40 uM GlcN6P", "setting": "[2]", "value": "< 1e-05", "unit": "s⁻¹"}, {"measurement": "self-cleavage kobs at 160 uM GlcN6P", "setting": "[3]", "value": "< 1e-05", "unit": "s⁻¹"}, {"measurement": "self-cleavage kobs at 10000 uM GlcN6P", "setting": "[4]", "value": "< 1e-05", "unit": "s⁻¹"}]}, {"variant": "A14U U49G", "values": [{"measurement": "kcat", "setting": "[1]", "value": "0.000127 ± 2.5e-06", "unit": "s⁻¹"}, {"measurement": "KM", "setting": "[5]", "value": "3130 ± 200", "unit": "µM"}, {"measurement": "self-cleavage kobs at 640 uM GlcN6P", "setting": "[6]", "value": "2.09e-05 ± 1e-05", "unit": "s⁻¹"}, {"measurement": "self-cleavage kobs at 2500 uM GlcN6P", "setting": "[7]", "value": "5.86e-05 ± 2.3e-05", "unit": "s⁻¹"}, {"measurement": "self-cleavage kobs at 10000 uM GlcN6P", "setting": "[4]", "value": "9.65e-05 ± 9.5e-06", "unit": "s⁻¹"}]}, {"variant": "A6U U55A", "values": [{"measurement": "kcat", "setting": "[1]", "value": "0.000365 ± 1.1e-05", "unit": "s⁻¹"}, {"measurement": "KM", "setting": "[5]", "value": "2630 ± 160", "unit": "µM"}, {"measurement": "self-cleavage kobs at 640 uM GlcN6P", "setting": "[6]", "value": "7.22e-05 ± 1.3e-05", "unit": "s⁻¹"}, {"measurement": "self-cleavage kobs at 2500 uM GlcN6P", "setting": "[7]", "value": "0.000173 ± 3.5e-05", "unit": "s⁻¹"}, {"measurement": "self-cleavage kobs at 10000 uM GlcN6P", "setting": "[4]", "value": "0.000291 ± 3.4e-05", "unit": "s⁻¹"}]}, {"variant": "G13U G29U U31C", "values": [{"measurement": "kcat", "setting": "[1]", "value": "1.48e-05 ± 3.5e-06", "unit": "s⁻¹"}, {"measurement": "self-cleavage kobs at 40 uM GlcN6P", "setting": "[2]", "value": "< 1e-05", "unit": "s⁻¹"}]}, {"variant": "G41C U55G", "values": [{"measurement": "kcat", "setting": "[1]", "value": "0.00012 ± 1.1e-05", "unit": "s⁻¹"}, {"measurement": "KM", "setting": "[5]", "value": "1930 ± 750", "unit": "µM"}, {"measurement": "self-cleavage kobs at 2500 uM GlcN6P", "setting": "[7]", "value": "8.8e-05 ± 3.3e-05", "unit": "s⁻¹"}, {"measurement": "self-cleavage kobs at 10000 uM GlcN6P", "setting": "[4]", "value": "9.95e-05 ± 1.2e-05", "unit": "s⁻¹"}]}, {"variant": "G29U U45G", "values": [{"measurement": "kcat", "setting": "[1]", "value": "0.000648 ± 0.00013", "unit": "s⁻¹"}, {"measurement": "KM", "setting": "[5]", "value": "1660 ± 680", "unit": "µM"}, {"measurement": "self-cleavage kobs at 160 uM GlcN6P", "setting": "[3]", "value": "3.73e-05 ± 1.2e-05", "unit": "s⁻¹"}, {"measurement": "self-cleavage kobs at 640 uM GlcN6P", "setting": "[6]", "value": "0.000217 ± 2.8e-05", "unit": "s⁻¹"}, {"measurement": "self-cleavage kobs at 2500 uM GlcN6P", "setting": "[7]", "value": "0.00064 ± 0.00013", "unit": "s⁻¹"}, {"measurement": "self-cleavage kobs at 10000 uM GlcN6P", "setting": "[4]", "value": "0.000522 ± 5.5e-05", "unit": "s⁻¹"}]}, {"variant": "U45A A52C", "values": [{"measurement": "kcat", "setting": "[1]", "value": "6.93e-05 ± 3e-05", "unit": "s⁻¹"}, {"measurement": "self-cleavage kobs at 160 uM GlcN6P", "setting": "[3]", "value": "< 1e-05", "unit": "s⁻¹"}, {"measurement": "self-cleavage kobs at 2500 uM GlcN6P", "setting": "[7]", "value": "0.000121 ± 3.4e-05", "unit": "s⁻¹"}, {"measurement": "self-cleavage kobs at 10000 uM GlcN6P", "setting": "[4]", "value": "5.55e-05 ± 1.5e-05", "unit": "s⁻¹"}]}, {"variant": "G32C A42G", "values": [{"measurement": "kcat", "setting": "[1]", "value": "0.000211 ± 3.7e-05", "unit": "s⁻¹"}, {"measurement": "self-cleavage kobs at 2500 uM GlcN6P", "setting": "[7]", "value": "3.92e-05 ± 9.5e-06", "unit": "s⁻¹"}, {"measurement": "self-cleavage kobs at 10000 uM GlcN6P", "setting": "[4]", "value": "0.000103 ± 1.3e-05", "unit": "s⁻¹"}]}, {"variant": "A6G C10U U56A", "values": [{"measurement": "kcat", "setting": "[1]", "value": "< 1e-05", "unit": "s⁻¹"}, {"measurement": "self-cleavage kobs at 40 uM GlcN6P", "setting": "[2]", "value": "< 1e-05", "unit": "s⁻¹"}, {"measurement": "self-cleavage kobs at 640 uM GlcN6P", "setting": "[6]", "value": "< 1e-05", "unit": "s⁻¹"}]}, {"variant": "U31G C67G", "values": [{"measurement": "kcat", "setting": "[1]", "value": "0.000557 ± 2.6e-05", "unit": "s⁻¹"}, {"measurement": "KM", "setting": "[5]", "value": "1760 ± 150", "unit": "µM"}, {"measurement": "self-cleavage kobs at 160 uM GlcN6P", "setting": "[3]", "value": "4.63e-05 ± 8.1e-06", "unit": "s⁻¹"}, {"measurement": "self-cleavage kobs at 640 uM GlcN6P", "setting": "[6]", "value": "0.00015 ± 1.7e-05", "unit": "s⁻¹"}, {"measurement": "self-cleavage kobs at 2500 uM GlcN6P", "setting": "[7]", "value": "0.000303 ± 5.8e-05", "unit": "s⁻¹"}, {"measurement": "self-cleavage kobs at 10000 uM GlcN6P", "setting": "[4]", "value": "0.00048 ± 4.6e-05", "unit": "s⁻¹"}]}, {"variant": "A48G U56A", "values": [{"measurement": "kcat", "setting": "[1]", "value": "6.12e-05 ± 9.5e-06", "unit": "s⁻¹"}, {"measurement": "self-cleavage kobs at 2500 uM GlcN6P", "setting": "[7]", "value": "4.68e-05 ± 7.6e-06", "unit": "s⁻¹"}, {"measurement": "self-cleavage kobs at 10000 uM GlcN6P", "setting": "[4]", "value": "5.17e-05 ± 8.2e-06", "unit": "s⁻¹"}]}, {"variant": "U31G G37A", "values": [{"measurement": "kcat", "setting": "[1]", "value": "0.00148 ± 0.00038", "unit": "s⁻¹"}, {"measurement": "KM", "setting": "[5]", "value": "5250 ± 1900", "unit": "µM"}, {"measurement": "self-cleavage kobs at 160 uM GlcN6P", "setting": "[3]", "value": "6.42e-05 ± 1.6e-05", "unit": "s⁻¹"}, {"measurement": "self-cleavage kobs at 640 uM GlcN6P", "setting": "[6]", "value": "0.000144 ± 2.8e-05", "unit": "s⁻¹"}, {"measurement": "self-cleavage kobs at 2500 uM GlcN6P", "setting": "[7]", "value": "0.000466 ± 7.3e-05", "unit": "s⁻¹"}, {"measurement": "self-cleavage kobs at 10000 uM GlcN6P", "setting": "[4]", "value": "0.000999 ± 0.00019", "unit": "s⁻¹"}]}, {"variant": "A33U A53U", "values": [{"measurement": "kcat", "setting": "[1]", "value": "4.9e-05 ± 3.4e-06", "unit": "s⁻¹"}, {"measurement": "KM", "setting": "[5]", "value": "2490 ± 550", "unit": "µM"}, {"measurement": "self-cleavage kobs at 40 uM GlcN6P", "setting": "[2]", "value": "< 1e-05", "unit": "s⁻¹"}, {"measurement": "self-cleavage kobs at 160 uM GlcN6P", "setting": "[3]", "value": "< 1e-05", "unit": "s⁻¹"}, {"measurement": "self-cleavage kobs at 2500 uM GlcN6P", "setting": "[7]", "value": "2.34e-05 ± 1e-05", "unit": "s⁻¹"}, {"measurement": "self-cleavage kobs at 10000 uM GlcN6P", "setting": "[4]", "value": "3.95e-05 ± 9.4e-06", "unit": "s⁻¹"}]}, {"variant": "C67G C71A", "values": [{"measurement": "kcat", "setting": "[1]", "value": "< 1e-05", "unit": "s⁻¹"}]}, {"variant": "C16A G63U", "values": [{"measurement": "kcat", "setting": "[1]", "value": "< 1e-05", "unit": "s⁻¹"}, {"measurement": "self-cleavage kobs at 40 uM GlcN6P", "setting": "[2]", "value": "< 1e-05", "unit": "s⁻¹"}, {"measurement": "self-cleavage kobs at 160 uM GlcN6P", "setting": "[3]", "value": "< 1e-05", "unit": "s⁻¹"}, {"measurement": "self-cleavage kobs at 10000 uM GlcN6P", "setting": "[4]", "value": "< 1e-05", "unit": "s⁻¹"}]}, {"variant": "G13C G32U", "values": [{"measurement": "kcat", "setting": "[1]", "value": "0.000576 ± 4.2e-05", "unit": "s⁻¹"}, {"measurement": "KM", "setting": "[5]", "value": "3170 ± 470", "unit": "µM"}, {"measurement": "self-cleavage kobs at 640 uM GlcN6P", "setting": "[6]", "value": "8.34e-05 ± 4.1e-05", "unit": "s⁻¹"}, {"measurement": "self-cleavage kobs at 2500 uM GlcN6P", "setting": "[7]", "value": "0.000258 ± 5.7e-05", "unit": "s⁻¹"}, {"measurement": "self-cleavage kobs at 10000 uM GlcN6P", "setting": "[4]", "value": "0.000436 ± 7.7e-05", "unit": "s⁻¹"}]}, {"variant": "A33U C67G C68G", "values": [{"measurement": "kcat", "setting": "[1]", "value": "9.15e-05 ± 1.3e-05", "unit": "s⁻¹"}, {"measurement": "self-cleavage kobs at 40 uM GlcN6P", "setting": "[2]", "value": "6.63e-05 ± 2e-05", "unit": "s⁻¹"}, {"measurement": "self-cleavage kobs at 160 uM GlcN6P", "setting": "[3]", "value": "4.67e-05 ± 1.9e-05", "unit": "s⁻¹"}, {"measurement": "self-cleavage kobs at 640 uM GlcN6P", "setting": "[6]", "value": "0.000106 ± 1.7e-05", "unit": "s⁻¹"}, {"measurement": "self-cleavage kobs at 2500 uM GlcN6P", "setting": "[7]", "value": "9.54e-05 ± 1.6e-05", "unit": "s⁻¹"}, {"measurement": "self-cleavage kobs at 10000 uM GlcN6P", "setting": "[4]", "value": "7.94e-05 ± 2e-05", "unit": "s⁻¹"}]}]}
